Measured values published in PMC4055269 (Molecular Biology of the Cell, 2014).

Molecular target: the molecule itself
Test: SEC-MALS

B1: Drp1 C505A (enzyme, human, UniProt O00429-4 1-699, looked up)
chain: MEALIPVINKLQDVFNTVGADIIQLPQIVVVGTQSSGKSSVLESLVGRDLLPRGTGIVTRRPLILQLVHVSQEDKRKTTGEENGVEAEEWGKFLHTKNKLYTDFDEIRQEIENETERISGNNKGVSPEPIHLKIFSPNVVNLTLVDLPGMTKVPVGDQPKDIELQIRELILRFISNPNSIILAVTAANTDMATSEALKISREVDPDGRRTLAVITKLDLMDAGTDAMDVLMGRVIPVKLGIIGVVNRSQLDINNKKSVTDSIRDEYAFLQKKYPSLANRNGTKYLARTLNRLLMHHIRDCLPELKTRINVLAAQYQSLLNSYGEPVDDKSATLLQLITKFATEYCNTIEGTAKYIETSELCGGARICYIFHETFGRTLESVDPLGGLNTIDILTAIRNATGPRPALFVPEVSFELLVKRQIKRLEEPSLRCVELVHEEMQRIIQHCSNYSTQELLRFPKLHDAIVEVVTCLLRKRLPVTNEMVHNLVAIELAYINTKHPDFADAAGLMNNNIEEQRRNRLARELPSAVSRDKVASGGGGVGDGVQEPTTGNWRGMLKTSKAEELLAEEKSKPIPIMPASPQKGHAVNLLDVPVPVARKLSAREQRDCEVIERLIKSYFLIVRKNIQDSVPKAVMHFLVNHVKDTLQSELVGQLYKSSLLDDLLTESEDMAQRRKEAADMLKALQGASQIIAEIRETHLW
  stoichiometry N: 2
